Data reported in paper PMC7337054, “Structural basis for differentiation between two classes of thiolase: Degradative vs biosynthetic thiolase” (Journal of Structural Biology: X, 2020).

Substrate: CC(=O)CC(=O)SCCNC(=O)CCNC(=O)[C@H](O)C(C)(C)COP(=O)(O)OP(=O)(O)OC[C@H]1O[C@@H](n2cnc3c(N)ncnc32)[C@H](O)[C@@H]1OP(=O)(O)O
Assay: purified protein
Assay type: biochemical, Pseudomonas putida
Conditions: thiolytic cleavage, 70 μM CoASH, 25 mM MgCl2, 0.1 M Tris-HCl pH 8.3, 37 °C

B1: PcaF (β-ketoadipyl-CoA thiolase) (Pseudomonas putida KT2440) (protein)
chain: MHDVFICDAIRTPIGRFGGALASVRADDLAAVPLKALIERNPGVQWDQVDEVFFGCANQAGEDNRNVARMALLLAGLPESIPGVTLNRLCASGMDAVGTAFRAIASGEMELVIAGGVESMSRAPFVMGKAESAYSRNMKLEDTTIGWRFINPLMKSQYGVDSMPETADNVADDYQVSRADQDAFALRSQQKAAAAQAAGFFAEEIVPVRIAHKKGEIIVERDEHLRPETTLEALTKLKPVNGPDKTVTAGNASGVNDGAAAMILASAAAVKKHGLTPRARVLGMASGGVAPRVMGIGPVPAVRKLTERLGIAVSDFDVIELNEAFASQGLAVLRELGVADDAPQVNPNGGAIALGHPLGMSGARLVLTALHQLEKSGGRKGLATMCVGVGQGLALAIERV
notes: full length, 400 residues plus 22 vector residues; N-terminal His-tag with TEV site, pSGC-His, E. coli BL21(DE3) pLysS; tetramer
Q: B1 was tested. Which Km did it give?
A: 67.8 ± 8.2 µM

Q: What about the kcat of the same protein?
A: 0.7 ± 0.08 S^−1
